# Data from patent US20180251524A1 (REGENTS OF THE UNIVERSITY OF MINNESOTA, published 2018).
# Residue numbers refer to the chain shown, from its start. Names may count otherwise.
# B1: NODAGA-Fn-NT (Fn_NT_G65C non-targeted control conjugated to maleimide-NODAGA) (designed binder)
# chain: SSDSPRNLEVTNATPNSLTISWDAPAVTVRYYRITYGETGGNSPSQEFTVPGSKSTATISGLKPCQDYTITVYAVTGRDGSPASSKPISINYRTEIDKPSQHHHHHH
# modifications: maleimide-NODAGA on the engineered cysteine (G65C)
# notes: Non-targeted scaffold with wild-type loops, G65C and RGD changed to RDG
# B2: Fn3 CSANs (DHFR^2-Fn3 fusion proteins with clone C5, oligomerized with bisMTX) (designed binder)
# chain: MGEQKLISEEDLGGSGGGSGGGISLIAALAVDRVIGMENAMPWNLPADLAWFKRNTLNKPVIMGRHTWESIGRPLPGRKNIILSSQPGTDDRVTWVKSVDEAIAAAGDVPEIMVIGGGRVYEQFLPKAQKLYLTHIDAEVEGDTHFPDYEPDDWESVFSEFHDADAQNSHSYSFEILERRGGISLIAALAVDRVIGMENAMPWNLPADLAWFKRNTLNKPVIMGRHTWESIGRPLPGRKNIILSSQPGTDDRVTWVKSVDEAIAAAGDVPEIMVIGGGRVYEQFLPKAQKLYLTHIDAEVEGDTHFPDYEPDDWESVFSEFHDADAQNSHSYSFEILERRGELGGGGSGGGGSGGGGSASSSDSPRNLEVTNATPNSLTISWDNSNYASYYRITYGETGGNSPSQELTVPGSTYNATISGLKPGQDYIITVYAVTYRDNYSYSNLISINYRSEIDKPSQGSHHHHHH
# notes: Multivalent nanoring; also called EpCAM-targeted Fn3 CSANs; monospecific Fn3 CSANs
# B3: bispecific mSA/Fn3 CSANs (co-assembled mSA-DHFR^2 and DHFR^2-Fn3 subunits) (designed binder)
# chain 1: B2 chain
# chain 2: MAEAGITGTWYNQSGSTFTVTAGADGNLTGQYENRAQGTGCQNSPYTLTGRYNGTKLEWRVEWNNSTENCHSRTEWRGQYQGGAEARINTQWNLTYEGGSGPATEQGQDTFTKVKELGGSGGGSGGGSGGMISLIAALAVDRVIGMENAMPWNLPADLAWFKRNTLNKPVIMGRHTWESIGRPLPGRKNIILSSQPGTDDRVTWVKSVDEAIAAAGDVPEIMVIGGGRVYEQFLPKAQKLYLTHIDAEVEGDTHFPDYEPDDWESVFSEFHDADAQNSHSYSFEILERRGMISLIAALAVDRVIGMENAMPWNLPADLAWFKRNTLNKPVIMGRHTWESIGRPLPGRKNIILSSQPGTDDRVTWVKSVDEAIAAAGDVPEIMVIGGGRVYEQFLPKAQKLYLTHIDAEVEGDTHFPDYEPDDWESVFSEFHDADAQNSHSYSFEILERRGGSGGGSGGGSGGDYKDDDDK
# notes: Stochastic mixture of the two subunits oligomerized with bisMTX; also called mSA/Fn3 bispecific CSANs
# B4: mixed, reduced valency CSANs of 1DD-FnC5-v4 and 1DD-FnNT-v4 subunits (designed binder)
# chain 1: MGEQKLISEEDLGGSGGGSGGGISLIAALAVDRVIGMENAMPWNLPADLAWFKRNTLNKPVIMGRHTWESIGRPLPGRKNIILSSQPGTDDRVTWVKSVDEAIAAAGDVPEIMVIGGGRVYEQFLPKAQKLYLTHIDAEVEGDTHFPDYEPDDWESVFSEFHDADAQNSHSYSFEILERRGGISLIAALAVDRVIGMENAMPWNLPADLAWFKRNTLNKPVIMGRHTWESIGRPLPGRKNIILSSQPGTDDRVTWVKSVDEAIAAAGDVPEIMVIGGGRVYEQFLPKAQKLYLTHIDAEVEGDTHFPDYEPDDWESVFSEFHDADAQNSHSYSFEILERRGELGGSGGGGSGGGGSGGGGSGGGGSGGGGSGGGGSGGGGSGGGGSGGASSSDSPRNLEVTNATPNSLTISWDNSNYASYYRITYGETGGNSPSQELTVPGSTYNATISGLKPGQDYIITVYAVTYRDNYSYSNLISINYRSEIDKPSQGSHHHHHH
# chain 2: MGEQKLISEEDLGGSGGGSGGGISLIAALAVDRVIGMENAMPWNLPADLAWFKRNTLNKPVIMGRHTWESIGRPLPGRKNIILSSQPGTDDRVTWVKSVDEAIAAAGDVPEIMVIGGGRVYEQFLPKAQKLYLTHIDAEVEGDTHFPDYEPDDWESVFSEFHDADAQNSHSYSFEILERRGGISLIAALAVDRVIGMENAMPWNLPADLAWFKRNTLNKPVIMGRHTWESIGRPLPGRKNIILSSQPGTDDRVTWVKSVDEAIAAAGDVPEIMVIGGGRVYEQFLPKAQKLYLTHIDAEVEGDTHFPDYEPDDWESVFSEFHDADAQNSHSYSFEILERRGELGGSGGGGSGGGGSGGGGSGGGGSGGGGSGGGGSGGGGSGGGGSGGASSSDSPRNLEVTNATPNSLTISWDAPAVTVRYYRITYGETGGNSPSQEFTVPGSKSTATISGLKPGQDYTITVYAVTGRDGSPASSKPISINYRTEIDKPSQGSHHHHHH
# notes: Nanoring co-assembled with the chemical dimerizer bis-methotrexate
# B5: CSANs displaying only the non-binding control domain (1DD-FnNT-v4) (designed binder)
# chain: B4 chain 2
# notes: Nanoring oligomerized with bis-methotrexate; control; also called 1DD-FnNT-v4 CSANs
# B6: mixed, reduced valency CSANs of 1DD-FnB22-v4 and 1DD-FnNT-v4 subunits (designed binder)
# chain 1: B4 chain 1 with N414D, S415Y, N416T, Y417S, L437F, S442N, I448V, K452R, L475P, S482T
# chain 2: B4 chain 2
# notes: as for B4
# B7: EpCAM-binding fibronectin clone C8 (parent ligand) (designed binder)
# chain: SSDSPRNLEVTNATPNSLTISWDYPNSASYYRITYSETGGNSPSQEFTVPGNTYNATISGLKPGQDYIITVYAVTYRDNYSYSNLISINYRTEIDKPSQHHHHHH
# notes: also called C08
# B8: non-specifically biotinylated fibronectin clone C8 (designed binder)
# chain: B7 chain
# modifications: non-specific biotinylation of primary amines (N-terminus, lysines) with EZ-Link Sulfo-NHS-Biotin
# notes: also called biotin-C08; biotin-C8
# B9: EpCAM-binding fibronectin clone C10 (parent ligand) (designed binder)
# chain: B7 chain with Y24D, N26D, S27F, S36G, N41S, N55S, Q65R, Y67H, I68T, L85P
# B10: EpCAM-binding fibronectin clone B22 (parent ligand) (designed binder)
# chain: B7 chain with Y24D, P25Y, N26T, S36G, I58V, K62R, L85P
# B11: non-specifically biotinylated fibronectin clone C10 (designed binder)
# chain: B7 chain with Y24D, N26D, S27F, S36G, N41S, N55S, Q65R, Y67H, I68T, L85P
# modifications: non-specific biotinylation of primary amines (N-terminus, lysines) with EZ-Link Sulfo-NHS-Biotin
# notes: also called biotin-C10
# B12: NODAGA-Fn-C5 (Fn_C5_G65C conjugated to maleimide-NODAGA) (designed binder)
# chain: B7 chain with Y24N, P25S, S27Y, S36G, F47L, N52S, G64C, T92S
# modifications: maleimide-NODAGA on the engineered cysteine (G65C, position as in SEQ ID NO: 1)
# notes: Single NODAGA per domain by MALDI-MS; also called Fn 3.4.5 G65C NODAGA conjugate
# B13: EpCAM-binding fibronectin (Fn3) clone C5 (designed binder)
# chain: B7 chain with Y24N, P25S, S27Y, S36G, F47L, N52S, T92S
# notes: Soluble domain made in E. coli; also called Fn 3.4.5; Fn C5
# B14: non-specifically biotinylated fibronectin clone B22 (designed binder)
# chain: B7 chain with Y24D, P25Y, N26T, S36G, I58V, K62R, L85P
# modifications: non-specific biotinylation of primary amines (N-terminus, lysines) with EZ-Link Sulfo-NHS-Biotin
# notes: also called biotin-B22
# Tests used:
# [1] = target: T1, epithelial cell adhesion molecule (EpCAM) on EpCAM-expressing MCF-7 cells (human, UniProt P16422 24-314); assay: flow cytometry titration on EpCAM+ MCF-7 cells
# T1 construct: whole, on cells; also called cellular EpCAM; EpCAM+ MCF-7 cells
# T1 sequence (looked up): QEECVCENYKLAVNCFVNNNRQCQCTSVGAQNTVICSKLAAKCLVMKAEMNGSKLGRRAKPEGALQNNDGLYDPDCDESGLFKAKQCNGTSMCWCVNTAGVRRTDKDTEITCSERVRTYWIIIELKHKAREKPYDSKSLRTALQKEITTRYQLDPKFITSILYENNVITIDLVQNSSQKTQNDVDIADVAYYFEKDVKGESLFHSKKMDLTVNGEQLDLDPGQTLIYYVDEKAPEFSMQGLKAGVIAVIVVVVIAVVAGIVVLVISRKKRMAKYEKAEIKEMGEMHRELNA
# [2] = target: T1, epithelial cell adhesion molecule …; assay: flow cytometry titration on EpCAM-expressing MCF-7 cells, anti-MYC detection; apparent (multivalent) Kd
# Protocol: The apparent affinity and selectivity of the Fn3 and mSA/Fn3 CSANs was determined by flow cytometry, as previously described (Stern, et al., ACS Combinatorial Science 2017, 19 (5), 315-323). Briefly, EpCAM-expressing MCF-7 cells and EpCAM-negative U-87 MG cells were cultured to approximately 80% confluency, detached, and counted, as described above. Aliquots of 5×10⁴ cells were washed with PBSA (PBS with 0.1% w/v bovine serum albumin) and labeled with varying concentrations of Fn3 or mSA/Fn3 CSANs for ≥90 min at 4° C. Cells were then pelleted (500 g, 5 min, 4° C.) and resuspended in 50 μL anti-MYC (clone 9E10) Alexa Fluor 647 conjugate (Thermo Fisher Scientific, Cat: MA1-980-A647; 5 μg/mL in PBSA). After incubating at 4° C. for ≥30 min in the dark, cells were again pelleted and washed thrice with 1 mL cold PBSA before the fluorescence was analyzed on an LSR II flow cytometer (BD Biosciences).
# [3] = target: T1, epithelial cell adhesion molecule …; assay: flow cytometry on EpCAM+ MCF-7 cells
# [4] = target: T1, epithelial cell adhesion molecule …; assay: flow cytometry titration of unmodified parent ligand on MCF-7 cells
# [5] = target: T1, epithelial cell adhesion molecule …; assay: flow cytometry titration of biotinylated ligand on EpCAM+ MCF-7 cells
# [6] = target: T1, epithelial cell adhesion molecule …; assay: flow cytometry, multiple affinity titrations on EpCAM+ MCF-7 cells
# [7] = target: T1, epithelial cell adhesion molecule …; assay: flow cytometry titration of soluble clone on MCF-7 cells
binder,measurement,setting,value
B1,binding result,[1],no binding
B2,Kd,[2],21 nM
B3,Kd,[2],24 nM
B4,binding result,[1],binds
B5,binding result,[3],no binding
B6,binding result,[1],binds
B7,Kd,[4],11 nM
B8,Kd,[5],5.7 nM
B9,Kd,[4],25 nM
B10,Kd,[4],1100 nM
B11,Kd,[5],9.7 nM
B12,Kd,[6],14 nM
B13,Kd,[7],17 nM
B14,Kd,[5],1700 nM
